# Earlier results as cited in article PMC6933782 (ACS Omega, 2019).
# Details: ref 26 (Jagoda et al., 2015)
substance,measurement,setting,value
"^18F-labeled RSA: ^18F-labeled rat serum albumin (RSA), literature, ref 26",retention of uptake in the heart and peripheral vasculature,"PET, up to stated time postinjection",up to 2.5 h
same,uptake in PET,,uptake in the heart and peripheral vasculature
